Measurements published in publication PMC7641127 (2020).
No end group written: not given here.

T1: recombinant MCL1 (human, UniProt Q07820 1-350)
T1 chain: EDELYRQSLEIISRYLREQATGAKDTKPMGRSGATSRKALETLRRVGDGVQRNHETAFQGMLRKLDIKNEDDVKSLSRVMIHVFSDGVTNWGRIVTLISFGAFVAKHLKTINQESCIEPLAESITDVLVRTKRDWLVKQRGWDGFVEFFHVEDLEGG


Biological target: T1, recombinant MCL1
Assay: FP

Binder	IC50
RENFEILMKLKESLELMELVPQPLVDSYRQQQQLLQR [p73TD-derived peptide α1α2]	882 nM
DEDTYYLQVRGRENFEILMKLKESLELMELV-NH2 [p73TD-derived peptide β1α1]	1090 nM
RENFEILMKLKESLELMELV [p73TD-derived peptide α1]	2630 nM
